Test results reported in patent US11015206B2, “Compositions and methods comprising sequences having hydroxyphenylpyruvate dioxygenase (HPPD) activity” (PIONEER HI-BRED INTERNATIONAL, INC., priority 2014, dated 2021).
Residue numbers refer to the chain shown, from its start. Names may count otherwise.

B1: 211L: single substitution Y211L in SEQ ID NO:2 (protein)
chain: MGPTPTATAAGAAVAAASAAEQAAFRLVGHRNFVRFNPRSDRFQTLAFHHVELWCADAASAAGRFSFALGVPLAARSDLSTGNSAHASLLLRSGSLSLLFTAPYAHGADAATAALPSFSAAAARRFAADHGLAVRAVALRVADAEDAFRASVAAGARPAFGPVDLGRGFRLAEVELYGDVVLRYVSYPDGAAGEPFLPGFEGVASPGAADLGLSRFDHIVGNVPELAPAAAYMAGFTGFHEFAEFTTEDVGTTESGLNSMALANNSENVLLPLNEPVHGTKRRSQIQTFLDHHGGPGVQHIALASDDVLRTLREMRARSAMGGFEFLPPPLSDYYDGVRRCAGDVLTEAQINECQELGVMVDRDDQGVLLQIFTKPVGDRPTFFLEIIQRIGCMEKDEKGQEYQKGGCGGFGKGNFGQLFKSIEDYEKSLEAKQAAAAATAQGS
modifications: Zea mays variant form created by artificial means.
B2: 206S: single substitution P206S in SEQ ID NO:2 (protein)
chain: B1 chain with P206S, L211Y
modifications: Zea mays variant form created by artificial means.
B3: 191G: single substitution A191G in SEQ ID NO:2 (protein)
chain: B1 chain with A191G, L211Y
modifications: Zea mays variant form created by artificial means.
B4: 434H: single substitution Q434H in SEQ ID NO:2 (protein)
chain: B1 chain with L211Y, Q434H
modifications: Zea mays variant form created by artificial means.
B5: 434R: single substitution Q434R in SEQ ID NO:2 (protein)
chain: B1 chain with L211Y, Q434R
modifications: Zea mays variant form created by artificial means.

The molecules below were run on 4-hydroxyphenylpyruvate dioxygenase (HPPD) (assay: HPPD activity coupled assay with HGD; substrate saturation kinetic parameters (kcat, KM)). Conditions: Table 6.
Assay type: biochemical, Z. mays
Method in brief: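 Coupled continuous assay: His-tagged HPPD (5 to 240 nM, E. coli-expressed, Ni-NTA-purified) with 50 nM P. aeruginosa HGD in 25 mM Hepes pH 7, 2 mM ascorbate, 10 μM FeSO4; maleylacetoacetate followed at 320 nm. KM and Vmax from Lineweaver-Burke fits over 3.33–100 μM HPP.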

In order of rising Km:
1. B3  2.46 µM
2. B5  2.74 µM
3. B4  2.77 µM
4. B1  3.2 µM
5. B2  3.36 µM

Same assay, conditions: Table 6; single substitutions in SEQ ID NO:2

In order of rising kcat:
1. B2  1.13 s⁻¹
2. B3  1.2 s⁻¹
3. B1  1.29 s⁻¹
4. B5  1.35 s⁻¹
5. B4  1.41 s⁻¹

What follows are molecules tested on 4-hydroxyphenylpyruvate dioxygenase (HPPD) (assay: ON rate ratio: HPPD reaction rate with vs without inhibitor in the 70 to 90 second interval). Conditions: Table 5; tembotrione.
Assay type: biochemical, Z. mays
Method in brief: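 Indicator of inhibitor on-rate: reaction velocity in the 70 to 90 second window with 4 μM inhibitor divided by that without. Reactions contained 100 μM HPP and 60 or 120 nM HPPD; slower binding gives a larger ratio.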

In order of rising “ON ratio (parameters with tembotrione)” value:
1. B5  0.73
2. B2  0.75
3. B1  0.77
4. B3  0.77
5. B4  0.78

What follows are molecules tested on 4-hydroxyphenylpyruvate dioxygenase (HPPD) (assay: OFF rate ratio: release of inhibitor from pre-formed enzyme-inhibitor complex). Conditions: Table 5; tembotrione.
Assay type: biochemical, Z. mays
Method in brief: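 Inhibitor release from pre-formed complex (enzyme 7.2 μM, inhibitor 8 μM, 1 h RT) tracked as accelerating HPPD activity at 320 nm over 12 min, coupled via 50 nM HGD with 100 μM HPP at pH 7. OFF rate ratio: steady-state velocity relative to uninhibited initial velocity.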

In order of rising “OFF ratio (parameters with tembotrione)” value:
1. B3  0.13
2. B4  0.13
3. B5  0.15
4. B1  0.17
5. B2  0.20

The molecules below were run on 4-hydroxyphenylpyruvate dioxygenase (HPPD) (assay: Insensitivity parameter (ON × OFF) and trait fitness (ON × OFF × kcat/KM or × kcat)). Conditions: DKN (diketonitrile form of isoxaflutole).
Assay type: biochemical, Z. mays
Method in brief: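 Trait fitness combines catalysis and insensitivity as kcat/KM × ON rate ratio × OFF rate ratio. The insensitivity parameter is the product of ON and OFF rate ratios, used in place of KD because the ON rate ratio is inverse.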

In order of rising “Insensitivity parameter, ON × OFF” value:
1. B5  0.18
2. B4  0.21
3. B1  0.25
4. B3  0.25
5. B2  0.29

Same assay, conditions: DKN (isoxaflutole diketonitrile)

In order of falling “ON × OFF × kcat/km fold vs Round 7, variant 9070” value (“ON × OFF × kcat/km fold” below):
1. B4  1.4
2. B1  1.1
3. B2  1.1
4. B3  1.1
5. B5  1.1

Same assay, conditions: Mesotrione; Table 6

In order of rising “Insensitivity parameter, ON × OFF” value:
1. B1  0.37
2. B5  0.39
3. B3  0.40
4. B2  0.46
5. B4  0.46

Same assay, conditions: Sulco (sulcotrione)

In order of rising “ON × OFF × kcat/km fold” value:
1. B2  0.8
2. B1  0.9
3. B3  1.1
4. B5  1.1
5. B4  1.3

Same assay, conditions: Sulcotrione

In order of falling “Insensitivity parameter, ON × OFF” value:
1. B4  0.55
2. B2  0.53
3. B3  0.51
4. B1  0.47
5. B5  0.47

Same assay, conditions: Table 5; tembotrione

In order of falling “ON × OFF × kcat, Value”:
1. B5  5.63
2. B4  5.16
3. B2  5.15
4. B1  4.72
5. B3  4.36

Same assay, conditions: Table 5; tembotrione; fold vs maize wild type HPPD

In order of rising “ON × OFF × kcat, Fold vs wt” value:
1. B3  4.08
2. B1  4.41
3. B2  4.82
4. B4  4.82
5. B5  5.26

In order of falling “ON × OFF, fold vs wt” value:
1. B2  28.5
2. B1  25.0
3. B5  21.2
4. B3  20.1
5. B4  19.5

Same assay, conditions: Table 5; tembotrione; insensitivity parameter

In order of rising “ON × OFF (parameters with tembotrione)” value:
1. B3  0.10
2. B4  0.10
3. B5  0.11
4. B1  0.13
5. B2  0.15

Same assay, conditions: Tembotrione

In order of falling “Insensitivity parameter, ON × OFF” value:
1. B1  0.22
2. B2  0.20
3. B3  0.19
4. B4  0.15
5. B5  0.15

Same assay, conditions: Topra (topramezone)

In order of rising “ON × OFF × kcat/km fold” value:
1. B2  1.0
2. B1  1.1
3. B3  1.1
4. B4  1.1
5. B5  1.1

Same assay, conditions: Topramezon

In order of falling “Insensitivity parameter, ON × OFF” value:
1. B2  0.29
2. B1  0.27
3. B3  0.24
4. B4  0.22
5. B5  0.22

Same assay, conditions: meso (mesotrione)

In order of rising “ON × OFF × kcat/km fold” value:
1. B1  0.9
2. B2  0.9
3. B3  1.1
4. B5  1.1
5. B4  1.3

Same assay, conditions: tembo (tembotrione)

In order of rising “ON × OFF × kcat/km fold” value:
1. B3  1.0
2. B1  1.1
3. B2  1.1
4. B4  1.1
5. B5  1.1

What follows are molecules tested on 4-hydroxyphenylpyruvate dioxygenase (HPPD) (assay: Estimate of kcat from initial rate at saturating hydroxyphenylpyruvate without inhibitor (ON rate ratio assay)). Conditions: Table 5; single substitutions in Round 7 variant 9070 (SEQ ID NO:2); estimate from initial rate at saturating hydroxyphenylpyruvate without inhibitor.
Assay type: biochemical, Z. mays
Method in brief: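 kcat was estimated from the initial reaction rate with known enzyme level (60 or 120 nM HPPD). Hydroxyphenylpyruvate was at a saturating 100 μM, with no inhibitor present.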

In order of falling kcat:
1. B5  0.868 s⁻¹
2. B4  0.865 s⁻¹
3. B3  0.71 s⁻¹
4. B1  0.615 s⁻¹
5. B2  0.592 s⁻¹
